Our source for the maximally increased % dimer fraction (CuP 1 to 100 μM), stoichiometry N and [3H]glycine uptake after CuP treatment (1 to 100 μM), transport activity remaining values is article PMC9781295.

Assay [1] concerns the target GlyT1b L288C, N-terminal FLAG-tagged (human). In words: cross-linking; oxidative cross-linking on intact HEK293 cells with copper phenanthroline (CuP, 1-100 μM) for 15 min at 22 °C in HEPES buffered saline, quenched with 10 mM N-ethylmaleimide; lysates in non-reducing sample buffer, anti-FLAG immunoblot; also with ZnCl2, NMDGCl, Na+, glycine, bitopertin or LY2365109 present, or 100 mM DTT on the lysates. On the technique in general: In western blotting, separated proteins are transferred to a membrane and probed.

Assay [2] has the same target.

By stoichiometry N is commonly meant a count of units in the complex or per binding partner. For “GlyT1b L288C, N-terminal FLAG-tagged (natural protein)”, in assay [1], the maximally increased % dimer fraction (CuP 1 to 100 μM) was 55.9% and the stoichiometry N was 2. The [3H]glycine uptake after CuP treatment (1 to 100 μM), transport activity remaining at the highest CuP concentration, % of control without CuP in assay [2] was 54 % of control.
